From publication PMC10992614, “Construction and optimization of a biocatalytic route for the synthesis of neomenthylamine from menthone” (Bioresources and Bioprocessing, 2023)
Values belong to the molecule of their own block, whether it stands above or below them.

Experiments:
[1] = target: T1, ω-transaminase from Vibrio fluvialis JS17 (VfTA) (Vibrio fluvialis, UniProt F2XBU9); assay: enzyme kinetics (GC assay), product inhibition of VfTA; type: biochemical
T1 sequence (F2XBU9 1-453): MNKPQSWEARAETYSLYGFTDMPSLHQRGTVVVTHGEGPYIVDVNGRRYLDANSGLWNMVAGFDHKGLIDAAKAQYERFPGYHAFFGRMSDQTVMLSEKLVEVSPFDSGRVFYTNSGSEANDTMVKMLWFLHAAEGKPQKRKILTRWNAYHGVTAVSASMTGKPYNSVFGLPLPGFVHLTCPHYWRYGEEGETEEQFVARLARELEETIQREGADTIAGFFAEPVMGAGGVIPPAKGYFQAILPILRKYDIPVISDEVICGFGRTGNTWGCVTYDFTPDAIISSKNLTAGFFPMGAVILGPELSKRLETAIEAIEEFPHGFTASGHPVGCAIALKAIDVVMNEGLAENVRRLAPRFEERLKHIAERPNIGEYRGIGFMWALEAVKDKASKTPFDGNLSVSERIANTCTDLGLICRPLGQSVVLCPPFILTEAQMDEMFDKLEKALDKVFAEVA

[2] = target: T1, ω-transaminase from Vibrio fluvialis JS17 (VfTA); assay: product formation by purified VfTA (GC); no product inhibition detected; type: biochemical
purified protein = substrate: C[C@H](N)c1ccccc1; assay: purified protein; type: biochemical, Vibrio fluvialis; settings: pyridoxal-5'-phosphate (PLP)
[3] = substrate: CC(C)[C@@H]1CC[C@@H](C)CC1=O; assay: steady-state kinetics with purified VfTA (KM, GC assay); type: biochemical, Vibrio fluvialis; settings: pyridoxal-5'-phosphate (PLP)

Ki [1]: 600 µM
Molecule: CC(=O)c1ccccc1 [Acetophenone]

Molecule: CC(C)[C@@H]1CC[C@@H](C)C[C@@H]1N [(+)-neomenthylamine]
product formation by purified VfTA (GC); no product inhibition detected [2]: transaminase (VfTA) from Vibrio fluvialis JS17 (PDB: 5ZTX) that can convert (−)-menthone into (+)-neomenthylamine successfully

B1: ω-transaminase from Vibrio fluvialis JS17 (VfTA) (Vibrio fluvialis) (protein)
chain: T1 sequence (F2XBU9 1-453)
Km (purified protein): 800 ± 100 µM | kcat/Km (purified protein): 54400 M⁻¹ s⁻¹ | Km [3]: 5000 ± 600 µM | kcat/Km [3]: 3300 M⁻¹ s⁻¹
